Laboratory results: PMC3988316 (Cell, 2013)
No end group written: not given here. cellulose‑PEG membrane = cellulose-PEG membrane solid support to which peptides are linked at the C-terminus as "dots"

Target: N-terminally flag-tagged full-length S. cerevisiae Ubr1 (S. cerevisiae, UniProt P19812 1-1950)
Experiment: peptide or protein array

Chain of N-terminally flag-tagged full-length S. cerevisiae Ubr1 (P19812 whole entry): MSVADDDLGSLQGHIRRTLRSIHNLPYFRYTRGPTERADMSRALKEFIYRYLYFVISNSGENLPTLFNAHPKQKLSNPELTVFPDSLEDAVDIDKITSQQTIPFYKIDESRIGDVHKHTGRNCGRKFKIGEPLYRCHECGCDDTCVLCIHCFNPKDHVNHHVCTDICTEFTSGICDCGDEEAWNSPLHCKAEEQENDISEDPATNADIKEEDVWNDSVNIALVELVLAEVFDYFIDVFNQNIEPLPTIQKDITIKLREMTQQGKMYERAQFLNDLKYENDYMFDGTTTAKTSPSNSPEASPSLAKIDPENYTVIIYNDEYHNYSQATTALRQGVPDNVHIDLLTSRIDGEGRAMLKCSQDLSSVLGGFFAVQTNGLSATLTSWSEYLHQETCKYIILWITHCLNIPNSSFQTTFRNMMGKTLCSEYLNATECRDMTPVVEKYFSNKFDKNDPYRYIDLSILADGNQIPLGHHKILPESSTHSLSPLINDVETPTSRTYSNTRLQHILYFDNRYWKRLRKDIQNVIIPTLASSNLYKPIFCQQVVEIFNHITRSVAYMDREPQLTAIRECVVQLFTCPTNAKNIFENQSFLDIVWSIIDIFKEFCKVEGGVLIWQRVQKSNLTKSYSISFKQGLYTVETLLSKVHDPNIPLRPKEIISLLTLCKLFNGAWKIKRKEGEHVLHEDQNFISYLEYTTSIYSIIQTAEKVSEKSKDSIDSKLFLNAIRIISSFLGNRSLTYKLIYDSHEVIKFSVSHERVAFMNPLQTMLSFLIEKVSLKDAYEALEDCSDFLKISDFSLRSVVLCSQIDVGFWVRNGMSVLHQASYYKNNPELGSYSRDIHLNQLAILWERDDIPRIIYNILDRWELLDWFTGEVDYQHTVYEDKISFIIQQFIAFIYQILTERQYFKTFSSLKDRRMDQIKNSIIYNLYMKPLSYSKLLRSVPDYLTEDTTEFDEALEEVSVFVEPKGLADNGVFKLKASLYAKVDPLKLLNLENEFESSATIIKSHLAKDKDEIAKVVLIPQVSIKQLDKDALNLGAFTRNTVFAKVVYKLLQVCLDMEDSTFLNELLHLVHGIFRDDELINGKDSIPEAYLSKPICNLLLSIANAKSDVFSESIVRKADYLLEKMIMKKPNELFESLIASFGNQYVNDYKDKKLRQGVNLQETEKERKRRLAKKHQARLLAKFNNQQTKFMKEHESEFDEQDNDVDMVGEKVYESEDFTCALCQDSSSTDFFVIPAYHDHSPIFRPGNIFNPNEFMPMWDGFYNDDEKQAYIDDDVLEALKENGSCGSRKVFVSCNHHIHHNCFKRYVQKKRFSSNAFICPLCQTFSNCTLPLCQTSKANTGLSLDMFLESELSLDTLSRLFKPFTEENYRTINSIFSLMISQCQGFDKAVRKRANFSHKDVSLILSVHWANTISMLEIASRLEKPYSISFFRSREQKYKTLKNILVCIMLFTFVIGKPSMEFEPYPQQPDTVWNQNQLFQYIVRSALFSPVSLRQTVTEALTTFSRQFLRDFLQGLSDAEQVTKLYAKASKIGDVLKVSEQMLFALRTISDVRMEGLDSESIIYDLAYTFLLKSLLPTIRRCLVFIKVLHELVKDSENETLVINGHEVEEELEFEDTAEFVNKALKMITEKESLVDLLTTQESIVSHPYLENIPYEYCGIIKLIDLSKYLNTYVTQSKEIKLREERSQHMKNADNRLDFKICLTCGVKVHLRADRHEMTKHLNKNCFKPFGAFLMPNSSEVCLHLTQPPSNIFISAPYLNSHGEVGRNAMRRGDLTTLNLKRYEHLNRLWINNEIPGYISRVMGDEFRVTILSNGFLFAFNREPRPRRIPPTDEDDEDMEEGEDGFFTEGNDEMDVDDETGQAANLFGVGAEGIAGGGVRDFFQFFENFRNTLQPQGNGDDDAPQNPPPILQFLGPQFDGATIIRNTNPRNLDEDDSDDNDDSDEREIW

| Binder | binding result |
| --- | --- |
| MWGSGAWLLP-{cellulose‑PEG membrane} [Met-Trp-e^K(3–10) peptide] | binds |
| MVGSGAWLLP-{cellulose‑PEG membrane} [Met-Val-e^K(3–10) peptide] | binds |
| MIGSGAWLLP-{cellulose‑PEG membrane} [Met-Ile-e^K(3–10) peptide] | binds |

The next lines start with the values.

| binding result | Binder |
| --- | --- |
| binds | MAGSGAWLLP-{cellulose‑PEG membrane} [Met-Ala-e^K(3–10) peptide] |
| binds | MFGSGAWLLP-{cellulose‑PEG membrane} [Met-Phe-e^K(3–10) peptide] |
| binds | MYGSGAWLLP-{cellulose‑PEG membrane} [Met-Tyr-e^K(3–10) peptide] |
